# Laboratory results from the supplement of paper PMC9170038.
# System: MS2 coat protein
# Assay: apparent KD of MS2 coat protein; designed switch direction (-1 OFF switch, 1 ON switch): -1; higher = weaker reporter binding
# Procedure, shortened: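 Apparent KD, taken as the median over clusters for each design, was obtained by curve-fitting normalised cluster fluorescence. Designed RNA switches had been transcribed on Illumina chips by stalled E. coli RNA polymerase and titrated with SNAP-549-labelled MS2 coat protein, doubling from 0.7 or 1.5 nM to 3 µM.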
# [1] = Eterna round: R95, input ligand: FMN 200 uM
# [2] = Eterna round: R95, input ligand: microRNA oligo, concentration not stated
# [3] = Eterna round: R95, input ligand: none
# [4] = input ligand: microRNA oligo, concentration not stated
Sequence,apparent KD of MS2 coat protein [1],apparent KD of MS2 coat protein [2],apparent KD of MS2 coat protein [3],apparent KD of MS2 coat protein (input ligand: FMN 200 uM),apparent KD of MS2 coat protein [4],apparent KD of MS2 coat protein (input ligand: none)
AAAAAACAUGAGGAUCACCCAUGUCAGGAUAUCCGCGAAGGAAAGAAAAAAAAAAAAGGGAGAAGGGACAAAAA [April's Ex-date #4] (puzzle: Exclusion 1),49.5 nM,52.8 nM,28.5 nM,–,–,–
AAAAAGCGAGGAUAUACAUGAGGAUCACCCAUGUGAGGGCACCGCGGGCGCGGGACCGGUAGAAGGCGCAAAAA [Exc;s3-II] (puzzle: Exclusion 3),33.6 nM,24.1 nM,38.5 nM,–,–,–
"AAAACAAACGAAGGAUAUGCAACCCGGCGGUACGCAGAAGGUCGAAAGAUUUUCAUUCUACAUGAGGAUCACCCAUGUACGGGC [Leange] (Eterna round: R96, puzzle: Exclusion NG 1)",–,–,–,48.5 nM,39.7 nM,52.3 nM
"AAAACAAGCAUAAGAUCCCACAUGAGGAUCACCCAUGUGCUCGUCUUAUAAAAGGUUUCGACGAAAACGUCGAGACC [Eli 91 v30] (Eterna round: R97, puzzle: Sensor, turn-off variant 1)",–,–,–,29.6 nM,–,29.6 nM
AAAACACAUGAGGAUCACCCAUGUGAGGAUAUGUCCAUGCUCGGCAAACCGGGCAUGGACAGAAGGCACAUAAA [JR_Exclusion1_Sub015] (puzzle: Exclusion 1),–,40.3 nM,–,–,–,–
AAAACACAUGAGGAUCACCCAUGUGAGGAUAUGUUAAUUUUAAUGAAAAUUAAAAUUAACAGAAGGCACAGAAA [JR_Exclusion1_Sub024] (puzzle: Exclusion 1),46.3 nM,45.6 nM,54.2 nM,–,–,–
"AAAAGAAAACGAGGAUAUGCGCGUAACGUACAUCCUCUAGACAUGAGGAUCACCCAUGUAGCGCAGCAGAAGGCGUAAAAGAAA [Orises] (Eterna round: R96, puzzle: Exclusion NG 2)",–,–,–,724 nM,75 nM,84.3 nM
"AAAAGAAUAAAAGGAUAUAGGAAAGGAAGUGUACUAGAAGGUUUGUUAACAUGAGGAUCACCCAUGUGCUCAGACACAGGGUGC [PowerStrip EXNG 1.3] (Eterna round: R96, puzzle: Exclusion NG 1)",–,–,–,–,91.5 nM,–
AAAAGCUAAGGAUAUACAUGAGGAUCACCCAUGUACACCGGUACGGGUGCGAACUCCUGUAGAAGGUGGGAUAA [Atatlege] (puzzle: Exclusion 3),–,121 nM,–,–,–,–
AAAAGGACAGGAUAUUCGACUCGCAACAUGAGGAUCACCCAUGUGGUCGUCCAGUCGCUCGAAGAAGGGUUAAAAC [Cegeesbe] (puzzle: Exclusion 5),74.7 nM,26.7 nM,31.3 nM,–,–,–
"AAAAGUUUUCAGGAUAUGUGCGAUUAAUAUCGUGCAGAAGGGAGGACAUGAGGAUCACCCAUGUUGAAGACAAC [Omei Ex6 A18] (Eterna round: R97, puzzle: Exclusion 6)",–,–,–,66.1 nM,–,80.2 nM
AAAAUACAUGAGGAUCACCCAUGUUAGGAUAUGCAAAGCCCAGUUAGCUUUUGGGUAGGUAGAAGGGACGGGUA [Reenen] (puzzle: Exclusion 1),–,21.5 nM,–,–,–,–
AAAAUGUCAGGAUAUACGAAACAAAACAAAACAAAACAAAAGUAGAAGGGACAUGAGGAUCACCCAUGUAAGAA [Exclusion 4 #2] (puzzle: Exclusion 4),49.6 nM,24.1 nM,32.5 nM,–,–,–
"AAACCCUGAGGAUAUGCAUAACAACAAAGCCUCACGUGCCAACAUGAGGAUCACCCAUGUAGAAGGCGGGCCAA [Mod R3 Insanara 18 - Jieux - Exclusion 2] (Eterna round: R97, puzzle: Exclusion 2)",–,–,–,24.3 nM,–,15.7 nM
"AAACCUAGUCUAGGAUAUGGUGAGAGUUUGUCGGUGAGUACAUGAGGAUCACCCAUGUACGCUUGCUAGAAGGAGACAGGCUCG [Eternabot solution 37] (Eterna round: R96, puzzle: Exclusion NG 2)",–,–,–,13.7 nM,11.5 nM,14.6 nM
"AAACCUGCCCAUGACCGCAAGCUUUUUGCUUGUCUUACCACAUGAGGAUCACCCAUGUGGCAUGGGCUCCUUAUAAA [Xemave] (puzzle: Sensor v3, turn-off variant 2)",14.2 nM,11.8 nM,11.7 nM,–,–,–
"AAACGGGUGUCCUCGUUUUCAACAUGAGGAUCACCCAUGUUCGAGGAUAUCCGAUAAGCUCUUCAGGAGAAGGCGAACAUAAAA [Eninenat] (Eterna round: R96, puzzle: Exclusion NG 3)",–,–,–,14.7 nM,32.1 nM,18.4 nM
"AAAGAAACAUGAGGAUCACCCAUGUCUGAUCCAAUGUUUAGUCAGGAUAUGCGUCCGACUUCGGAGCAGAAGGGAUACAGGUAG [Anlaanma] (Eterna round: R96, puzzle: Exclusion NG 3)",–,–,–,125 nM,357 nM,356 nM

Sequence,apparent KD of MS2 coat protein [1],apparent KD of MS2 coat protein [2],apparent KD of MS2 coat protein [3],apparent KD of MS2 coat protein (input ligand: FMN 200 uM),apparent KD of MS2 coat protein [4],apparent KD of MS2 coat protein (input ligand: none)
AAAGAGCUAGGAUAUCGCGACCUUGACAUGAGGAUCACCCAUGUGCCCUCGUAACAACGACGAGAAGGAGCGAAAA [Gelaladied] (puzzle: Exclusion 5),36.2 nM,16.8 nM,19.9 nM,–,–,–
"AAAGGGUCAGGAUAUCCUGUGAAGAAGAAGUUGUUGUCGCGGGAGAAGGGACAUGAGGAUCACCCAUGUAGAGC [A Simple Submission] (Eterna round: R97, puzzle: Exclusion 4)",–,–,–,52.9 nM,–,53.6 nM
"AAAGUGUAAGGAUAUCCGAAAAGCGAGCGAAAGCGAGCGAAGGAGAAGGUACAUGAGGAUCACCCAUGUAAGGG [AK-MS2ROC-r4-exclusion4-11.5] (Eterna round: R97, puzzle: Exclusion 4)",–,–,–,215 nM,–,961 nM
"AAAGUGUCAGGAUAUUGUUAGUUUAGUUGUUUGUAUUAGUUCGAGAAGGGACAUGAGGAUCACCCAUGUUGUAA [Ex4 #64] (Eterna round: R97, puzzle: Exclusion 4)",–,–,–,24.5 nM,–,32.2 nM
"AAAGUUCGAGGAUAUCUACUUAGCUACAUGAGGAUCACCCAUGUUAUCCUCCCGCUGGGAAGAGAAGGCGGUUAAA [Xeonceso] (Eterna round: R96, puzzle: Exclusion 5)",–,–,–,138 nM,27.1 nM,34.1 nM
AAAGUUCGAGGAUAUCUACUUAGCUACAUGAGGAUCACCCAUGUUAUCCUCCCGCUGGGAAGAGAAGGCGGUUAAA [Xeonceso] (puzzle: Exclusion 5),186 nM,41.7 nM,41.7 nM,–,–,–
"AAAUAACAAGCAGGAUCCUACAUGAGGAUCACCCAUGUGCUCGUCUUAUAAAGUACUAUCACGAAAGUGAUAGUACA [Sensor 3, v1 - 14] (puzzle: Sensor v3, turn-off variant 1)",434 nM,84.6 nM,363 nM,–,–,–
"AAAUAACAAGCGAGAUCCUACAUGAGGAUCACCCAUGUGCUCGUCUUAAGAAGUACUAUCACGAAAGUGAUAGUACA [Mat - Sensor v3 - turn-off var 1 - Eli Mod - D68] (puzzle: Sensor v3, turn-off variant 1)",17.6 nM,66 nM,14.7 nM,–,–,–
"AAAUAGCUAGAGGAUAUCGGAUAGGAUUUACUACGAGAAGGUUAGACAUGAGGAUCACCCAUGUUGUGUUGGGA [EX6 #19] (Eterna round: R97, puzzle: Exclusion 6)",–,–,–,59.6 nM,–,67.9 nM
"AAAUCGGAGGAGGAUAUGGUACAGGAAAUGGUGCCAGAAGGUUUCACAUGAGGAUCACCCAUGUCAAAUAGCGA [EX6 #60] (Eterna round: R97, puzzle: Exclusion 6)",–,–,–,19.1 nM,–,27.1 nM
"AAAUCGGUAGAGGAUAUUGUACAGGAAACGGUGCAAGAAGGUUGCACAUGAGGAUCACCCAUGUUAAAUUGCGA [EX6 #51] (Eterna round: R97, puzzle: Exclusion 6)",–,–,–,39.4 nM,–,38.8 nM
"AAAUGACAUUAGGAUAUAUAACGCGGCUGCCGCAUAGAAGGGAUGACUUGAGGAUCACCCAAGUGACCCAAGGA [Arcere] (Eterna round: R97, puzzle: Exclusion 6)",–,–,–,28.2 nM,–,30.8 nM
"AAAUGUGCGAGAGGAUAUCGUGUACAAAGUACACGAGAAGGCUUCACAUGAGGAUCACCCAUGUACCGAGGUGAAACACCUUGA [Omei Exc(NG)1 Bv4] (Eterna round: R96, puzzle: Exclusion NG 1)",–,–,–,599 nM,149 nM,198 nM
"AAAUUCAGAGGAUAUGCGCAUAGAUAAGACUUUUUUUUUUAACAUGAGGAUCACCCAUGUAGAAGGCUGUAAAU [Ex2 #52] (Eterna round: R97, puzzle: Exclusion 2)",–,–,–,24 nM,–,25.5 nM
"AACACUGUAGGAUAUCAUGAACUGGACUUGAGGAUCACCCAAGUGUAUCGUGGAGUGCCGUGAGAAGGACGGAUUA [Erleen] (Eterna round: R97, puzzle: Exclusion 5)",–,–,–,28.1 nM,–,27.2 nM
"AACAGUCUGGAGGAUAUGCUGGAUAAAUAUCUGGCAGAAGGCUGGACAUGAGGAUCACCCAUGUAAAUACUACC [Omei Ex6 A2b] (Eterna round: R97, puzzle: Exclusion 6)",–,–,–,54.5 nM,–,24.9 nM
"AACAUGAGGAUCACCCAUGUGGGUCCUCUGUGGCAGCGAGACGAGGAUAUCAAUGGAGGGCCAGGUGAGAAGGUGUACGAUCAU [Eternabot solution 28] (Eterna round: R96, puzzle: Exclusion NG 3)",–,–,–,183 nM,192 nM,386 nM
